Among the data in the RNAGym collection of RNA variant scans (doi:10.7554/elife.80360) are self-cleavage values, retold here.

To fix the notation:
B1: HDV Ribozyme (parent)
chain: GGCCGGCAUGGUCCCAGCCUCCUCGCUGGCGCCGGCUGGGCAACAUUCCGAGGGGACCGUCCCCUCGGUAAUGGCGAAUGGGACCCA

This data set covers variants of B1. The data set is described as follows: self-cleavage, relative activity (ratio to wild type); higher = more cleavage; co-transcriptional.
Take GGCCGGCAUGGGCCCAGCCUCCUCGCUGGCGCCGGCUGGGCAACAUUCCGAGGGGACCGUCCCCUCGGUAAUGGCGAAUGUGACCCA: the self-cleavage is 0.266. For GGCCGGCAUGGUCCCAUCCUCCUCGCUGGCGCCCGCUGGGCAACAUUCCGAGGGGACCGUCCCCUCGGUAAUGGCGAAUGGGACCCA, the self-cleavage was 0.0692.

For GGCCGGCAUGGUCCCAGCCUCCUCGCUGGCGCCGGCUGGGCAACAUUCCGAGGGGCUCGUCCCCUCGGUAAUGGCGAAUGGGACCCA, the self-cleavage was found to be 1.08. As for GGCCGGCAUGGUCCCGGCCUCCUCGCUGGCGCCGGCUGGGCAACAUUCCGAGGGGACCGGCCCCUCGGUAAUGGCGAAUGGGACCCA, the figure is 0.554.

With GGCCGGCAUGGUCCCAGCCUCCUCGCUGGCGCCGGCUCGGCAACAUUCCGAGUGGACCGUCCCCUCGGUAAUGGCGAAUGGGACCCA, the self-cleavage was found to be 0.266. Next, GGCCGGUAUGGUCCCAGCCUCCACGCUGGCGCCGGCUGGGCAACAUUCCGAGGGGACCGUCCCCUCGGUAAUGGCGAAUGGGACCCA: 0.923. For GGCCGGCAUGGUCCGAGCCUCCUCGCUGGCGCCGGCUGGGCAACAUUCCGAGGGGACCGUCCCCUCGGUAAUGGCGAAUGGCACCCA, the self-cleavage came out at 0.111. Take GGCCGGCAUGGUCCCAGCCUCCUCGGUGGCGCCGGCUGGGCAACAUGCCGAGGGGACCGUCCCCUCGGUAAUGGCGAAUGGGACCCA: the self-cleavage came out at 1.08.

In the case of GGCCGGCAUGGUCCCAGCCUCCUCGCUGGCGCCGGCUGGGCAACAUUCCGAGGGGACCGUCCCCUCGGUAAAGGCGAAUAGGACCCA, the self-cleavage was determined as 0.169. Next, GGCCGGCAUGGUCCCAGCCUCCUCGCCGGCGCCGGCUGGGCAACAUACCGAGGGGACCGUCCCCUCGGUAAUGGCGAAUGGGACCCA: 0.519; GGCCGGCAUGGUCCCAGCCUCCUCGCUGGCGCCGGCUGGGUAACAUUCCGAGGGGACCGUCCCCUCGGUAAUGACGAAUGGGACCCA: 0.637; GGCCGGCAUGGUCCCAGCCUCCUCGCUGGCGCCGGCUGGGCAACAUUCCGAGGGUACCGUCCCCUCGGUAAGGGCGAAUGGGACCCA: 0.652. Turning to GGCCGACAUGGUCCCAUCCUCCUCGCUGGCGCCGGCUGGGCAACAUUCCGAGGGGACCGUCCCCUCGGUAAUGGCGAAUGGGACCCA, the self-cleavage is 0.0773.

As for GGCCGGCAUGGUCCCAGCCUCCUCGCUGGCCCCGGCUGGGCAACAUUCCGAGGGGACCGUCCCCUCGGUAAUGGCGAAUUGGACCCA, the self-cleavage is 0.0811. As for GGCCGGCAUGGUCCCAGCCUCCUCGCUGGCGCCGGCUGGGCAAUAUUCCGAGGGGACCGUCCCUUCGGUAAUGGCGAAUGGGACCCA, the figure is 0.876; as for GGCCGGCAUGGUCCCUGCCUCCUCGCUGGCGCCGGCUGGGCAACAUUCCGAGGGGACCGUCCCCUCGGUAAUGGCGAAUGGCACCCA, 0.256; as for GGCCGGCAAGGUCCCAGCCUCCUCGCUGGCGCCGGCUGGGCAACAUUCCGAGGGGACCGUCCCCUCGGUAAUGGCGAUUGGGACCCA, 0.332. Consider GGCCGGCAUGGUCCCAGCCUCCUCGCUGGCGCCGGUUGGGCAACAUUCCGAGGGGACCGUCCCCUCGGUAAUGGCGUAUGGGACCCA, for which the self-cleavage was determined as 0.224. Next, AGCCGGCAUGGUCCCAGCCUCCUCGCUGGCGCCGGCUGGGCAACAUUCCGAGGGGACCGUCCACUCGGUAAUGGCGAAUGGGACCCA: 0.289; GGCCGGCAUGGUCCCAGCCUCCUCGCUGUCGCCGGCUGGGCAACAUUCCGAGGGGACCGUCCCAUCGGUAAUGGCGAAUGGGACCCA: 0.0665. Take GGCCGGCAUGGUCCCAGCCUCCUCGCUGGCGCCGGAUGGGCAACAUUCCGAGGGGACCGUCCCCUGGGUAAUGGCGAAUGGGACCCA: the self-cleavage is 0.177. As for GGCCGGUAUGGUCCCAGCCUCCUCGCUGGCGCCGGCUGGGCAACAUUCCGAGGGGACCGUCGCCUCGGUAAUGGCGAAUGGGACCCA, the figure is 0.643; as for GGCCGGCAUGGCCCCAGCCUCCUCGCUGGCGCCGGCUGGGGAACAUUCCGAGGGGACCGUCCCCUCGGUAAUGGCGAAUGGGACCCA, 0.289; as for AGCCGGCAUGGUCCCAGCCUCCUCUCUGGCGCCGGCUGGGCAACAUUCCGAGGGGACCGUCCCCUCGGUAAUGGCGAAUGGGACCCA, 0.0462.

For the variant GGCCGGCAUGGUCCCAGCCUCCUCGCUGGCGCCGGCUGGGCAACUUUCCGAGGGGACGGUCCCCUCGGUAAUGGCGAAUGGGACCCA, the self-cleavage stood at 0.712. As for UGCCGGCAUGGUCCCAGCCUCCUCGCUGGCGCCGGCUGGGCAACAUUCCAAGGGGACCGUCCCCUCGGUAAUGGCGAAUGGGACCCA, the figure is 0.475. Next, GGCCGGCAUGGUCCCAGCCUCCACGCUGGCGCCGGCUGGGCAACAUUUCGAGGGGACCGUCCCCUCGGUAAUGGCGAAUGGGACCCA: 1.21; GGCCGGCAUGGUCCCAGCCUCCUCGCUGGCGCCGACUGGGCAACAUUCCGAGGGGACCGUCCCCUCGGUACUGGCGAAUGGGACCCA: 0.125; GGCCGGCAUGGUCCCAGCCUCCUCGCUGGCGCCGGUUGGGCAACCUUCCGAGGGGACCGUCCCCUCGGUAAUGGCGAAUGGGACCCA: 0.0426.

For the variant GGCCGGCAUGGUCCCCGCCUCCUCGCUGGCGCCGGCUGGGCAACAUUCCGAGGGCACCGUCCCCUCGGUAAUGGCGAAUGGGACCCA, the self-cleavage stood at 1.01.

As to GGCCGGCAUGGUCCCAGCCUCCUCGCUGGCGCAGGCUGGGCAACAAUCCGAGGGGACCGUCCCCUCGGUAAUGGCGAAUGGGACCCA, the self-cleavage turned out to be 0.128. Regarding CGCCGUCAUGGUCCCAGCCUCCUCGCUGGCGCCGGCUGGGCAACAUUCCGAGGGGACCGUCCCCUCGGUAAUGGCGAAUGGGACCCA, the self-cleavage worked out at 0.217.
